Test results published in paper PMC11313866 (Science Advances, 2024).

Molecular target: recombinant S. cerevisiae histone H3-H4 (S. cerevisiae, UniProt P61830 1-136; P02309 1-103)
Assay: pull-down

B1: GST-Pol32^244-350 (domain or fragment)
chain: DKNNDDLEDLLETTAEDSLMDVPKIQQTKPSETEHSKEPKSEEEPSSFIDEDGYIVTKRPATSTPPRKPSPVVKRALSSSKKQETPSSNKRLKKQGTLESFFKRKAK
B1: binds.
